Test results: paper PMC4960638, “Changes in the folding landscape of the WW domain provide a molecular mechanism for an inherited genetic syndrome” (Scientific Reports, 2016)
Bridges are numbered along the chain shown (N, C = ends). Where no end group is shown, it is not given here.

Target: the molecule itself
Test: SEC; size exclusion chromatography in the purification of the WW domain; column and buffer not shown (SI)

B1: WW domain of polyglutamine tract-binding protein 1 (PQBP1), Y65C mutant, 37 amino acid construct (domain or fragment, human, UniProt O60828 47-83, looked up)
chain: GLPPSWYKVFDPSCGLPYCWNADTDLVSWLSPHDPNS
modifications: disulfide 14-19 (inferred); not fully specified
notes: the mutation causes Golabi-Ito-Hall syndrome; also called Y65C WW domain; WW Y65C; source: purified by size exclusion chromatography
stoichiometry N: 2
